The values below come from article PMC3958441, “Isl1 and Pou4f2 Form a Complex to Regulate Target Genes in Developing Retinal Ganglion Cells” (PLoS ONE, 2014).

First the molecules themselves.
B1: EBF3(M) (dsDNA)
DNA 1: GTGCGTTGCTATTTTCGTTGCTCGGGAAAA
DNA 2: TTTTCCCGAGCAACGAAAATAGCAACGCAC
B2: IRX6(W) (dsDNA)
DNA 1: GTACTACTAATTAATTAATTGCAAACATTTC
DNA 2: GGAAATGTTTGCAATTAATTAATTAGTAGTA
B3: IRX6(M) (dsDNA)
DNA 1: TACTACTGCTTCGTTGCTTGCAAACATTTC
DNA 2: GGAAATGTTTGCAAGCAACGAAGCAGTAGTA
B4: CBRN3(M) (dsDNA)
DNA 1: GATCTCTCCTGCGCGGTTGACTACCCCCGGAT
DNA 2: GATCCGGGGGTAGTCAACCGCGCAGGAGAGAT
B5: Isl1, full-length, His-tagged (natural protein, mouse, UniProt P61372 1-349, looked up)
chain: MGDMGDPPKKKRLISLCVGCGNQIHDQYILRVSPDLEWHAACLKCAECNQYLDESCTCFVRDGKTYCKRDYIRLYGIKCAKCSIGFSKNDFVMRARSKVYHIECFRCVACSRQLIPGDEFALREDGLFCRADHDVVERASLGAGDPLSPLHPARPLQMAAEPISARQPALRPHVHKQPEKTTRVRTVLNEKQLHTLRTCYAANPRPDALMKEQLVEMTGLSPRVIRVWFQNKRCKDKKRSIMMKQLQQQQPNDKTNIQGMTGTPMVAASPERHDGGLQANPVEVQSYQPPWKVLSDFALQSDIDQPAFQQLVNFSEGGPGSNSTGSEVASMSSQLPDTPNSMVASPIEA
notes: Isl1, mouse, full-length coding region in pET-28a(+); 349 a.a; source: E. coli, in lysate (pull-down); purified on His SpinTrap columns (EMSA); not shown: His tag, C-terminal, kept
B6: Isl1D3 (a.a. 170-349) (domain or fragment, mouse, UniProt P61372 170-349, looked up)
chain: LRPHVHKQPEKTTRVRTVLNEKQLHTLRTCYAANPRPDALMKEQLVEMTGLSPRVIRVWFQNKRCKDKKRSIMMKQLQQQQPNDKTNIQGMTGTPMVAASPERHDGGLQANPVEVQSYQPPWKVLSDFALQSDIDQPAFQQLVNFSEGGPGSNSTGSEVASMSSQLPDTPNSMVASPIEA
notes: Isl1, mouse, a.a; 170-349, only the homeodomain and the C terminal region, none of the Lim domains; source: E. coli, in lysate (pull-down); purified on His SpinTrap columns (EMSA); not shown: His tag, C-terminal, kept
B7: Pou4f2 expressed in HEK 293 cells (natural protein, mouse, UniProt Q63934 1-411, looked up)
chain: MMMMSLNSKQAFSMPHAGSLHVEPKYSALHSASPGSSAPAAPSASSPSSSSNAGGGGGGGGGGGGGGRSSSSSSSGSGGSGGGGGSEAMRRACLPTPPSNIFGGLDESLLARAEALAAVDIVSQSKSHHHHPPHHSPFKPDATYHTMNTIPCTSAASSSSVPISHPSALAGTHHHHHHHHHHHHQPHQALEGELLEHLSPGLALGAMAGPDGTVVSTPAHAPHMATMNPMHQAALSMAHAHGLPSHMGCMSDVDADPRDLEAFAERFKQRRIKLGVTQADVGSALANLKIPGVGSLSQSTICRFESLTLSHNNMIALKPILQAWLEEAEKSHREKLTKPELFNGAEKKRKRTSIAAPEKRSLEAYFAIQPRPSSEKIAAIAEKLDLKKNVVRVWFCNQRQKQKRMKYSAGI
B8: Isl1D4 (a.a. 146-349) (domain or fragment, mouse, UniProt P61372 146-349, looked up)
chain: PLSPLHPARPLQMAAEPISARQPALRPHVHKQPEKTTRVRTVLNEKQLHTLRTCYAANPRPDALMKEQLVEMTGLSPRVIRVWFQNKRCKDKKRSIMMKQLQQQQPNDKTNIQGMTGTPMVAASPERHDGGLQANPVEVQSYQPPWKVLSDFALQSDIDQPAFQQLVNFSEGGPGSNSTGSEVASMSSQLPDTPNSMVASPIEA
notes: Isl1, mouse, a.a; 146-349; source: E. coli, in lysate (pull-down); purified on His SpinTrap columns (EMSA); not shown: His tag, C-terminal, kept
B9: Isl1D5 (a.a. 74-349) (domain or fragment, mouse, UniProt P61372 74-349, looked up)
chain: LYGIKCAKCSIGFSKNDFVMRARSKVYHIECFRCVACSRQLIPGDEFALREDGLFCRADHDVVERASLGAGDPLSPLHPARPLQMAAEPISARQPALRPHVHKQPEKTTRVRTVLNEKQLHTLRTCYAANPRPDALMKEQLVEMTGLSPRVIRVWFQNKRCKDKKRSIMMKQLQQQQPNDKTNIQGMTGTPMVAASPERHDGGLQANPVEVQSYQPPWKVLSDFALQSDIDQPAFQQLVNFSEGGPGSNSTGSEVASMSSQLPDTPNSMVASPIEA
notes: Isl1, mouse, a.a; 74-349; source: E. coli, in lysate (pull-down); purified on His SpinTrap columns (EMSA); not shown: His tag, C-terminal, kept
B10: SBRN3(M) (dsDNA)
DNA 1: GCACACGACCCAGCGCGTTGACAACCGGGCTG
DNA 2: GCAGCCCGGTTGTCAACGCGCTGGGTCGTGTG
B11: Pou4f2D5 (a.a. 125-411) (domain or fragment, mouse, UniProt Q63934 125-411, looked up)
chain: SKSHHHHPPHHSPFKPDATYHTMNTIPCTSAASSSSVPISHPSALAGTHHHHHHHHHHHHQPHQALEGELLEHLSPGLALGAMAGPDGTVVSTPAHAPHMATMNPMHQAALSMAHAHGLPSHMGCMSDVDADPRDLEAFAERFKQRRIKLGVTQADVGSALANLKIPGVGSLSQSTICRFESLTLSHNNMIALKPILQAWLEEAEKSHREKLTKPELFNGAEKKRKRTSIAAPEKRSLEAYFAIQPRPSSEKIAAIAEKLDLKKNVVRVWFCNQRQKQKRMKYSAGI
notes: Pou4f2, mouse, a.a; 125-411, POU and homeo domains intact; source: E. coli, in lysate (pull-down); purified on His SpinTrap columns (EMSA); not shown: His tag, C-terminal, kept
B12: EBF3(W) (dsDNA)
DNA 1: GTGCGTTAATATTTTAATTAATCGGGAAAA
DNA 2: TTTTCCCGATTAATTAAAATATTAACGCAC

For one data set, the target named is T1, Pou4f2D5 (mouse, UniProt Q63934 125-411).
T1 sequence: B11 chain
The data set can be described thus: EMSA; EMSA: 20 mM Tris-HCl pH 7.5, 50 mM NaCl, 10 mM DTT, 1 mM EDTA, 5% glycerol, 200 ng dI/dC, 200 ng each protein in 20 ul, 4 C, 30 min; 8% PAGE, 1x TBE, 4 C. The note with it: protein: recombinant, tags: His (C-terminal). On the technique in general: Mobility shift assays separate free from complexed probe on a gel.

The target of a further data set is T2, Isl1 (mouse, UniProt P61372 1-349).
T2 sequence: B5 chain
Described as above. Particulars: protein: recombinant, tags: His (C-terminal, pET-28a).

The target in the next data set is T3, Pou4f2 (Brn3b) (mouse, UniProt Q63934 1-411).
T3 sequence: B7 chain
Described as above. Particulars: protein: recombinant; tags: His (C-terminal, pET-28a); (radiolabel, Klenow fill-in); 5' overhang 1 nt at both ends before fill-in.

Data set [1] addresses T4, Pou4f2, full-length, His-tagged (mouse, UniProt Q63934 1-411).
T4 construct: Pou4f2 (Brn3b), mouse, full-length coding region in pET-28a(+); 411 a.a; also called Brn3b; source: E. coli, in lysate (pull-down); purified on His SpinTrap columns (EMSA); not shown: His tag, C-terminal, kept
T4 sequence (looked up): B7 chain
The experiment in a line: native gel or EMSA; EMSA with purified His-tagged proteins (200 ng each) and radiolabelled DNA probes (SBRN3, CBRN3; Ebf3 and Irx6 for Isl1 with Pou4f2D5); protein-protein complex read from a slower migrating ternary complex on DNA; 20 mM Tris-HCl pH 7.5, 0.05 M NaCl, 10 mM DTT, 1 mM EDTA, 5% glycerol, 4 C. The note with it: both partners purified.

Data set [2] deals with T5, Isl1 expressed in HEK 293 cells (mouse, UniProt P61372 1-349).
T5 sequence (looked up): B5 chain
The data set can be described thus: cell-based or functional assay.

In data set [3] the target is B5. The data set can be described thus: native gel or EMSA; EMSA with purified His-tagged proteins (200 ng each) and radiolabelled DNA probes (SBRN3, CBRN3; Ebf3 and Irx6 for Isl1 with Pou4f2D5); protein-protein complex read from a slower migrating ternary complex on DNA; 20 mM Tris-HCl pH 7.5, 0.05 M NaCl, 10 mM DTT, 1 mM EDTA, 5% glycerol, 4 C. Particulars: both partners purified.

Where [4] appears, read: (radiolabel, Klenow fill-in), 5' overhang 1 nt at both ends before fill-in.
Where [5] appears, read: (radiolabel, Klenow fill-in), one end blunt, lower strand 5' overhang 1 nt before fill-in.

For B1, the binding result with Pou4f2D5 ((radiolabel, Klenow), blunt) was “no binding”; with Isl1 ((radiolabel, Klenow), blunt), “no binding”.
As for B2, the binding result with Pou4f2D5 (setting [4]) and with Isl1 (setting [4]) was “binds” throughout.
With B3, the binding result with Pou4f2D5 (setting [5]) and with Isl1 (setting [5]) was “no binding” each time.
In the case of B4, the binding result with Pou4f2 (Brn3b) and with Isl1 (setting [4]) was “no binding” each time.
In the case of B5, the binding result in data set [1] is on record as “binds”.
B6: the binding result in data set [1] is recorded as “binds”.
B7: the “luciferase reporter with the CBRN3 motif in HEK 293 cells, both expression constructs co-transfected, fold increase from the control (each factor alone about 2.5 fold)” value in data set [2] was around 3.5 fold.
As to B8, the binding result in data set [1] is “binds”.
With B9, in data set [1], the binding result is listed as “binds”.
For the molecule B10, the binding result with Pou4f2 (Brn3b) and in the data set with Isl1 (setting [4]) was “no binding” in each case.
Regarding B11, in data set [3], the binding result is “binds”.
Consider B12, for which the binding result was “binds” in the data set with Pou4f2D5 ((radiolabel, Klenow), blunt) and “binds” with Isl1 ((radiolabel, Klenow), blunt).
